Source: paper PMC13324855
Where “and” joins values, the source holds several entries; their conditions need not be identical. Identical values can stand only once.

Key:
[1] = biological target: SARS-CoV-1 receptor-binding domain (RBD), wild type (SARS-CoV-1); experiment: flow cytometry on cells
[2] = biological target: SARS-CoV-2 spike receptor-binding domain, Wuhan-Hu-1 (WT RBD) (SARS-CoV-2) (UniProt P0DTC2); experiment: flow cytometry on cells

## angiotensin converting enzyme 2 (ACE2) peptidase domain, ACE2D (domain or fragment)
[1]
  Kd: 1.51 nM and 1.72 nM and 1.9 nM
[2]
  EC25: 2 nM
